Usually IC50 stands for the concentration needed to halve the response being measured. Low values mean higher potency, high ones lower potency.

The target in this experiment is T1, human GST-VEGF (human, UniProt P15692-9 27-147).
T1 construct: also called GST-VEGF humano; not shown: GST fusion partner
T1 sequence (looked up): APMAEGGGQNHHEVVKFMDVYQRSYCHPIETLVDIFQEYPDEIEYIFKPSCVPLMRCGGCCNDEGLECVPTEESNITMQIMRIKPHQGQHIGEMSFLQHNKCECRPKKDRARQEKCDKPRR
Description: competition ELISA on coated GST-VEGF; soluble scFv 2H1 titrated; competitor phage scFv 2B12. Background: ELISA stands for enzyme-linked immunosorbent assay.

B1: soluble scFv 2H1 antibody fragment (scFv, from another filing)
scFv: QQVQLVQSGAEVKKPGESLKISCKGSGYSFTSYWIGWVRQMPGKGLEWMGIIYPGDSDTRYSPSFQGQVTISADKSISTAYLQWSSLKASDTAMYYCARLVVRDTEIWGQGTMVTVSSAPQAKSSGSGSESKVDQAVVTQEPSLTVSPGGTVTLTCASSIGAVTSGNYPNWFQQRPGQPPRALIYSTSNKHSWTPARFSGSLLGGKAALTLSGAQPEDEAEYYCLLSYSGARPVFGGGTKLTVLGAAAGSEQKLISEEDLNSHHHHHH
Take B1: the IC50 was 21.1 µg/mL.

(Values after patent US20140086829A1 (BIOREC S A, published 2014).)
